According to patent US10618964B2, “Nanobody against IL-6R” (Ablynx N.V., dated 2020):
Substitutions are numbered along the chain they refer to.

B1: IL6RPMP101A4 (VHH)
VHH: EVQLVESGGGTVQAGGSLKLSCAASGRTFTNYAMGWFRQAPGKEREFVAAIAYATHFADSVKGRFTISRGNAKNTVYLQMNSLKPEDAAVYYCAADLSLSKMVSKITSDMDYWGKGTLVTVSS
B2: IL6RPMP107H5 (VHH)
VHH: EVPLVESGGGLVQAGGSLNLSCNASGDIGSINAMGWYRQAPGQQREWVAVITDTDSTIYPDSVKGRFAISRDGAKNTVHLRMSSLKPEDTAVYYCNAYQAGWGDYWGQGTQVTVSS
B3: IL6RPMP108D2 (VHH)
VHH: EVQLVESGGGLVQAGGSLRLSCAASGFTFDDYDIGWFRQAPGKEREGVSGISSSDGNTYYADSVKGRFTISSDNAKNTVYLQMNSLKPEDTAVYYCAAEPPDSSWYLDGSPEFFKYWGQGTQVTVSS
B4: IL6RPMP107H2 (VHH)
VHH: KVQLVESGGGLVQPGGSLRLSCAASGFTFSSYAMSWVRRAPGKGLEWVSAINSDGTGSSYAPFVTGRFTASRDNAKNTLYLQMNSLKPEDTAVYYCTNSNRYDYADFSAVRGQGTQVTVSS
B5: IL6RPMP101H6 (VHH)
VHH: EMQLVESGGGLVQAGGSLRLSCTASGRTFTDYDMGWFRQAPGKEREVVAIIDTNGDNTLTVGSVKGRFAISSDNAKNTVYLQMNSLLPEDTAVYTCAAGAWSALRRSVANYWGQGTQVTVSS
B6: IL6RPMP101C2 (VHH)
VHH: B5 VHH with M2V, T30S, V47C, T60I, A100V, A103S, R106H, S107T, V108A
B7: IL6RPMP101D1 (VHH)
VHH: B5 VHH with M2V, T30S, V47C, T60I, A100V, A103S, R106H, S107T, V108A
B8: IL6RPMP108D10 (VHH)
VHH: B5 VHH with M2V, L11S, T30S, V47C, I50V, S72R, A103S, R106S, S107T, V108A
B9: IL6RPMP108F7 (VHH)
VHH: B5 VHH with M2V, T30S, V47C, I50V, S72R, A103S, R106S, S107T, V108A
B10: IL6RPMP108D1 (VHH)
VHH: B5 VHH with M2V, T30S, V47C, I50V, S72R, A103S, R106S, S107T, V108A, Q117K
B11: IL6RPMP101A5 (VHH)
VHH: B5 VHH with M2V, T30S, V47C, T60I, A100V, A103S, R106H, S107T, V108A
B12: IL6RPMP101D2 (VHH)
VHH: EVQMVESGGGLVQAGGSLRLSCAASGFAFDDYAIGWFRQAPGKEREGVSSISSSNGNTYYADSVRGRFTISSDNAKNTVYLQMNSLKPEDAGVYYCAAIWGIFFNEKMPVGAYDYWGQGTQVTVSS
B13: IL6RPMP101H3 (VHH)
VHH: B12 VHH with M4L, A91T
B14: IL6RPMP101F1 (VHH)
VHH: B12 VHH with M4L, A91T
B15: IL6RPMP101G4 (VHH)
VHH: B12 VHH with M4L, A91T
B16: IL6RPMP105E11 (VHH)
VHH: B12 VHH with M4L, S85G, A91T
B17: IL6RPMP101E1 (VHH)
VHH: B12 VHH with M4L, A91T
B18: IL6RPMP101F3 (VHH)
VHH: B12 VHH with M4L, A91T
B19: IL6RPMP105B8 (VHH)
VHH: B12 VHH with M4L, Q13R, A91T
B20: IL6RPMP100A10 (VHH)
VHH: EVQLVESGGGLVQAGGSLRLSCAASGRGFSPYTMGWFRQAPGKERVFVAGISWSTGIAHYTDSVKGRFTISRDNAKNTGSLQMNSLKPEDTAVYYCAVVQTTKGNYDYWGQGTQVTVSS
B21: IL6RPMP120C11 (VHH)
VHH: EVQLVESGGGLVQAGGSLSLSCATSGRTISDDTMAWFRQAPGKEREFVATITFSGARTHYSDSVRDRFTISRDNAKNTVYLQMNSLKSEDTAVYYCAASTKYYSSTYNYIHPAFYDIWGQGTQVTVSS
B22: IL6RPMP120B7 (VHH)
VHH: B21 VHH
B23: IL6RPMP119A10 (VHH)
VHH: EVQLVESGGGLVQPGGSLRLSCAASKSIFDINAMYWHRQAPGKQRESVASITSGGMRNYADSVKDRFTISKDNAKNTVYLQMNGLKPDDTAVYYCGLGRYEGGVWRDYWGQGTQVTVSS
B24: IL6RPMP103A4 (VHH)
VHH: EVQLVESGGGLVQPGGSLRLSCAASGSIFSINTMGWYRQVPGKQRELVATVRSGSITNYADSVQDRFTITRDIDENTVYLQMNSLKPEDTAVYYCLTRASVPGRGYQDYWGQGTQVTVSS
B25: IL6RPMP100A6 (VHH)
VHH: EVQLVESGGGLVQAGDSLRLSCLASGRSFKDDAMGWFRQAPGKEREFVSGIDWRGNIVDAESVKGRFTISRENAKNTLYLQMNHLKPEDTAVYYCAASSVFSDLRYRKNPKYWGQGTQVTVSS
B26: IL6RPMP106B2 (VHH)
VHH: EVQLVESGGGLVQAGGSLRLSCAASGSIFRINAMGWYRQAPGKQRELVAAAISGGSTNYADFVKGRFTISRDNAKNTVYLQMNSLKPEDTAVYYCNALVVSHNYSDYVPFPDDYWGQGTQVTVSS

Each binder was assayed against soluble IL-6R in cynomolgous plasma (cynomolgus monkey, UniProt A0A2K5WN54) (assay: ELISA 2, periplasmic extract; competitor IL-6; cyno plasma).
Method: (§1) In this ELISA, plasma was used as a source of native soluble IL-6R. By this assay, we aimed to confirm the alphascreen results and to get a view on the cross-reactivity of the clones towards cynomolgous IL-6R. Human plasma (ELISA 1 and ELISA 3) or cynomolgous plasma (ELISA 2) were pre-incubated with a dilution of the periplasmic extract of the clones together with human IL-6 (50 ng/mL). Subsequently, plasma soluble IL-6R was captured on a B-N12 coated plate and bound IL-6 was detected using anti-IL-6 antibody BAF206 and streptavidin-HRP (ELISA 1 and ELISA 2). The ELISA signal dropped when the Nanobody clone could compete with IL-6 for binding to soluble IL-6R. ELISA 3 was a parallel ELISA in which the detection antibody was replaced by anti-IL-6R antibody BAF227 to exclude false positive competitors, which actually compete with B-N12 (e.g. family 2). Depicted in Table C-5 is the ratio of the OD450 value of the test sample versus the blank OD450 (mock sample). Clones were ordered based on ELISA 1 data.

In order of rising OD450 ratio sample/blank:
1. B20  0.189
2. B23  0.249
3. B21  0.296
4. B22  0.299
5. B3  0.345
6. B4  0.6
7. B16  0.691
8. B1  0.713
9. B5  0.713
10. B25  0.722
11. B11  0.736
12. B8  0.761
13. B7  0.79
14. B10  0.79
15. B9  0.8
16. B17  0.805
17. B15  0.815
18. B19  0.816
19. B12  0.822
20. B18  0.822
21. B14  0.829
22. B13  0.859
23. B24  0.916
24. B2  0.997
25. B26  1.02
26. B6  1.03

Each binder was assayed against T1, native soluble IL-6R in human plasma (human, UniProt P08887) (assay: ELISA 1, periplasmic extract; competitor IL-6; human plasma).
Method: as §1

In order of falling OD450 ratio sample/blank:
1. B9  1.05
2. B6  1.04
3. B24  1.04
4. B11  1.03
5. B26  0.99
6. B8  0.961
7. B25  0.948
8. B2  0.901
9. B23  0.877
10. B10  0.87
11. B4  0.865
12. B7  0.812
13. B19  0.808
14. B15  0.796
15. B1  0.792
16. B5  0.788
17. B13  0.772
18. B18  0.758
19. B14  0.754
20. B20  0.748
21. B17  0.716
22. B22  0.714
23. B16  0.679
24. B21  0.673
25. B12  0.124
26. B3  0.0624

These binders were tested against T1, native soluble IL-6R in human plasma (assay: ELISA 3, periplasmic extract; competitor BN-12; human plasma).
Method: as §1

In order of falling OD450 ratio sample/blank:
1. B10  1.04
2. B2  1.03
3. B8  1.03
4. B19  1.03
5. B22  1.03
6. B24  1.03
7. B9  1.02
8. B15  1.02
9. B1  0.99
10. B23  0.989
11. B21  0.988
12. B18  0.984
13. B26  0.984
14. B12  0.977
15. B16  0.971
16. B20  0.97
17. B4  0.962
18. B14  0.957
19. B5  0.954
20. B13  0.954
21. B6  0.952
22. B11  0.95
23. B17  0.947
24. B7  0.928
25. B25  0.923
26. B3  0.916
